Measurements reported in article PMC5354831.

Target: HER3 (human (endogenous in LIM1215)) (UniProt P21860)
Experiment: Collaborative Enzyme Enhanced Reactive-immunoassay (CEER); proximity-mediated immunoassay in a multiplexed array format on LIM1215 cell lysates, done by Prometheus Laboratories; cells control-treated or treated 24h with cetuximab (50 ug/mL), lapatinib (1 uM), gefitinib, cetuximab + trastuzumab (20 ug/mL) or cetuximab + pertuzumab (10 ug/mL); read-out in computed units (CU)

UniProt P21860, sequence (P21860 20-1342): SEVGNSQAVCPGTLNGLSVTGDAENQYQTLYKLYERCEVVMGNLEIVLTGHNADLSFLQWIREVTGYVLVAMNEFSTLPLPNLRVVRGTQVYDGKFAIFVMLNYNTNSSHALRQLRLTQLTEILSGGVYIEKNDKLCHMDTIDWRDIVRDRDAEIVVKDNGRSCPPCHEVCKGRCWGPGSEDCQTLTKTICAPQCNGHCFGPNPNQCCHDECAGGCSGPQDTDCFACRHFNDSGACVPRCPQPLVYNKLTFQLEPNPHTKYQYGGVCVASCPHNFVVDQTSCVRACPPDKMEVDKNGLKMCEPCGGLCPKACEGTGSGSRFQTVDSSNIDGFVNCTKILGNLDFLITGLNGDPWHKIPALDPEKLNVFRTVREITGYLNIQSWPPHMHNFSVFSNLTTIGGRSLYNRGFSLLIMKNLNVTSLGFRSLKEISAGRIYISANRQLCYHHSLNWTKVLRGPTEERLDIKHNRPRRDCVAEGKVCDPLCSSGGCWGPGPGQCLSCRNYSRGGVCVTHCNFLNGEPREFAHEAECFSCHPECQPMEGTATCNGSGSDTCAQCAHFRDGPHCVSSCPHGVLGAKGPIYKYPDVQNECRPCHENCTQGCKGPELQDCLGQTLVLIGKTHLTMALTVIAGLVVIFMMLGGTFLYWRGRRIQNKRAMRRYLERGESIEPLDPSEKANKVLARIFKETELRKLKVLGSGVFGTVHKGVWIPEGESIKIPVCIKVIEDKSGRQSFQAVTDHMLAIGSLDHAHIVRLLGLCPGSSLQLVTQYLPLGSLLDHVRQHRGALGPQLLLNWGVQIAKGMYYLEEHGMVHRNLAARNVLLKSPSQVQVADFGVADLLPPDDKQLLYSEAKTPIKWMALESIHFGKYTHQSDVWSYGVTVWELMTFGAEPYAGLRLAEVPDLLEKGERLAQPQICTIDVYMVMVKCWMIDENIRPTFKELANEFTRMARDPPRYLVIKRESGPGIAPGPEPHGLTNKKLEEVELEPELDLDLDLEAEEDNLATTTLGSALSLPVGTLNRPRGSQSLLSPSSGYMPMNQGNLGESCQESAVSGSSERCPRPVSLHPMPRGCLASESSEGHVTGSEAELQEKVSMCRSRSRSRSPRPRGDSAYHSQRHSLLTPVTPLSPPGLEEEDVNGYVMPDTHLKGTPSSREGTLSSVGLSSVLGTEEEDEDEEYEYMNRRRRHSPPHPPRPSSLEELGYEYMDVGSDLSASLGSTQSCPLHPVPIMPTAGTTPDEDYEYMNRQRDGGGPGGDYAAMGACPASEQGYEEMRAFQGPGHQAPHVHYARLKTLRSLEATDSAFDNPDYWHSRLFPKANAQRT
PI3K p85, sequence (P27986 whole entry): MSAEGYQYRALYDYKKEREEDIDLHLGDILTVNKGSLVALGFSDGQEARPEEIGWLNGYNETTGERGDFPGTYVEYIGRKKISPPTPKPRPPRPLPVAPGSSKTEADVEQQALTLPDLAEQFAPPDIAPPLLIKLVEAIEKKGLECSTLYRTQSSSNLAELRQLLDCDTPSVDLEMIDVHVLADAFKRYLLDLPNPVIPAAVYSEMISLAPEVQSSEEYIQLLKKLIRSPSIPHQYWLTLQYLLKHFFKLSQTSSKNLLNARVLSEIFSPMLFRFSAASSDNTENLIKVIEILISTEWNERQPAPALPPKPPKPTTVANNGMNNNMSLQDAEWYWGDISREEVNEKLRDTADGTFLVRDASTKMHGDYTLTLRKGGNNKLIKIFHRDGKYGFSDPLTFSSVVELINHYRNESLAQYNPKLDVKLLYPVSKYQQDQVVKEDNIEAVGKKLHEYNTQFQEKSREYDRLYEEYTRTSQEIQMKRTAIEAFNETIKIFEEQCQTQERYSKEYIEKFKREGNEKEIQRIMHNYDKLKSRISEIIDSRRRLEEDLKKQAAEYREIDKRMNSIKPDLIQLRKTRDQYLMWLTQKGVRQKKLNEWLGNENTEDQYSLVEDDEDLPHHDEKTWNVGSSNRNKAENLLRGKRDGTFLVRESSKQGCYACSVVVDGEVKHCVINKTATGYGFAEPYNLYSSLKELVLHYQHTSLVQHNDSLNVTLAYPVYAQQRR

fold increase in HER3:PI3K p85 binding, 24h cetuximab against control treatment: 5 fold
Substance: PI3K p85 (from UniProt P27986 1-724) (natural protein)
